B1: TRIB1 (parent)
chain: SYVRSRKRLREEEAARLFKQIVSA
B2: TRIM35 (parent)
chain: DKELLCCSCQADPRHQGHRVQPVK

Variants of: B1
Test: protein stability index of a GFP-peptide fusion (GPS, HEK-293T) (PSI 1-6); higher = more stable
Settings: c terminus: a fixed tail appended
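Further: lentivirally expressed fusions sorted by FACS into six bins by GFP to DsRed ratio, PSI derived from sequencing read proportions per bin multiplied by bin number.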

Protein stability index of substitutions, site by site:
A15: C 1.93; I 1.4; V 1.84; T 2.08; L 2.05; H 2.08; D 2.32; K 1.96; Y 1.71; R 2.62; S 2.36; E 2.56; W 1.74; N 2.48; F 1.59; Q 2.15; G 2.56; P 3.43; M 2.68
R16: Y 2.32; A 1.9; V 2.53; F 2.66; P 3.39; E 2.87; L 1.93; D 2.17; M 2.52; H 2.2; T 2.57; N 2.58; I 1.37; Q 2.63; K 2.31; G 2.41; C 2.01; S 1.72
I21: K 3.27; R 3.8; V 2.34; H 2.4; T 3.48; W 3.98; M 2.47; D 4.08; N 4.01; Q 2.06; Y 2.06; L 1.39; S 3.66; P 3.76; E 3.23; F 2.2
K19: D 2.25; Y 2.02; T 2.04; M 2.43; L 1.33; I 2.91; R 1.85; F 2.71; P 2.81; H 1.69; C 2.34; N 1.7; E 2.06; S 2.31; Q 2.21
Q20: Y 1.13; G 2.52; R 1.95; I 1.43; T 2.37; N 2.64; D 2.08; F 1.61; P 3.03; S 2.27; C 1.43; K 2.15; M 2.17; A 1.8; L 1.32; H 1.54; W 1.46; E 2.4; V 1.04
F18: M 3.34; L 1.52; Q 4.07; A 3.44; E 3.02; H 4.19; D 3.83; S 3.42; P 3.99; G 3.92; W 2.56; T 3.84; V 2.86; R 3.74; Y 2.08; I 2.06; C 3.31; N 3.1
V22: Q 3.34; C 2.13; R 3.3; F 1.83; M 2.45; H 2.23; T 2.94; S 2.62; A 2.58; N 2.86; P 3.72; W 3.04; I 2.94; L 2.54; D 3.22; G 3.11; Y 1.49
A24: D 2.76; E 1.99; C 2.99; I 2.88; R 2.01; Y 2.32; Q 2.18; L 1.65; F 2.26; K 2.97; S 2.08; T 2.47; V 2.61; N 3.37; H 2.58; P 2.63; W 2; G 3.39; M 1.14
A14: N 1.89; T 2.83; S 3.24; Y 2.18; W 2.11; V 2.09; Q 2.99; P 2.56; R 3.17
L17: W 2.24; G 3.72; F 1.6; V 2.98; M 2.03; E 3.46; H 2.48; D 3.46; S 2.62; N 3.21; A 2.49; Q 2.1; K 2.61; R 2.1; Y 2.61; P 3.97; C 2.52; T 2.87
S23: Y 1.73; I 1.48; W 1.07; H 1.8; Q 1.94; T 1.75; E 2.56; N 2.32; L 2.18; G 1.9; A 2.01; K 2.3; F 2.07; D 3.05; R 1.99; C 1.63; M 2.87; P 2.99

Variants of: B2
Test: as above
Settings: c terminus: a fixed tail appended

Protein stability index of substitutions, site by site:
E3: N 3.68; V 2.45; P 3.09; S 3.94; W 1.93; L 2.11; M 2.12; H 2.47; G 2.43; R 2.81; T 3.72; F 2.34; I 2.51; K 3.52; Q 3.73; C 2.26; Y 2.46; D 3.4; A 2.92
D1: S 3.31; F 2.79; W 1.87; H 3.02; C 3.49; V 3.06; R 2.71; I 2.38; M 3.67; K 3.46; T 3.71; E 4.13; P 3.49; A 3.15; Q 3.59; Y 2.11; N 3.77
L5: C 3.88; P 4.36; A 3.65; S 4.44; H 3.91; Y 2.93; K 3.58; M 3.11; Q 4.36; E 4.08; W 3.18; R 3.32; D 4.43; N 2.66; F 3.55; T 4.29; I 3.76
K2: T 3.79; A 3.54; D 3.46; N 3.95; W 4.1; S 3.87; F 2.63; G 3.05; R 3.12; P 3.19; Q 3.78; C 4.2; Y 3.2; V 3.53; I 2.84; H 3.51; M 3.65; L 3.18; E 4.01
S8: G 4.14; Y 2.97; L 2.98; Q 3.05; I 2.64; M 2.87; E 4.61; A 3.31; H 2.92; D 4.28; C 4.16; W 2.5; P 3.59; K 3.78; N 3.62; F 2.24; V 3.75
C6: I 2.61; Y 3; D 5.31; T 3.76; E 4.3; K 4.36; L 3.41; A 3.61; W 2.29; M 3.74; P 3.64; V 2.25; H 4.45; R 3.54; S 3.73; N 3.87; F 2.99
C7: I 3.29; K 3.88; H 4.03; N 4.1; T 4.18; P 4.03; S 4.06; W 3.9; L 3.66; G 4.23; F 3.38; A 4.12; V 3.87; M 3.62; Y 3.83; Q 4.5; R 3.76; D 4.67; E 4.44
C9: D 5.29; E 4.87; A 3.85; F 3.38
L4: N 2.58; Y 3.8; W 2.68; A 3.86; H 4.08; I 2.52; F 3.31; D 4.47; Q 4.36; K 4.07; P 3.85; M 3.9; R 3.7; T 4.13; S 3.8; G 4.47; C 4.27; E 3.41; V 4.33
